In IntAct's records for PubMed 21586138:

B1: E3 ubiquitin-protein ligase SH3RF1 (Homo sapiens), Q7Z6J0 (parent)
chain: MDESALLDLLECPVCLERLDASAKVLPCQHTFCKRCLLGIVGSRNELRCPECRTLVGSGVEELPSNILLVRLLDGIKQRPWKPGPGGGSGTNCTNALRSQSSTVANCSSKDLQSSQGGQQPRVQSWSPPVRGIPQLPCAKALYNYEGKEPGDLKFSKGDIIILRRQVDENWYHGEVNGIHGFFPTNFVQIIKPLPQPPPQCKALYDFEVKDKEADKDCLPFAKDDVLTVIRRVDENWAEGMLADKIGIFPISYVEFNSAAKQLIEWDKPPVPGVDAGECSSAAAQSSTAPKHSDTKKNTKKRHSFTSLTMANKSSQASQNRHSMEISPPVLISSSNPTAAARISELSGLSCSAPSQVHISTTGLIVTPPPSSPVTTGPSFTFPSDVPYQAALGTLNPPLPPPPLLAATVLASTPPGATAAAAAAGMGPRPMAGSTDQIAHLRPQTRPSVYVAIYPYTPRKEDELELRKGEMFLVFERCQDGWFKGTSMHTSKIGVFPGNYVAPVTRAVTNASQAKVPMSTAGQTSRGVTMVSPSTAGGPAQKLQGNGVAGSPSVVPAAVVSAAHIQTSPQAKVLLHMTGQMTVNQARNAVRTVAAHNQERPTAAVTPIQVQNAAGLSPASVGLSHHSLASPQPAPLMPGSATHTAAISISRASAPLACAAAAPLTSPSITSASLEAEPSGRIVTVLPGLPTSPDSASSACGNSSATKPDKDSKKEKKGLLKLLSGASTKRKPRVSPPASPTLEVELGSAELPLQGAVGPELPPGGGHGRAGSCPVDGDGPVTTAVAGAALAQDAFHRKASSLDSAVPIAPPPRQACSSLGPVLNESRPVVCERHRVVVSYPPQSEAELELKEGDIVFVHKKREDGWFKGTLQRNGKTGLFPGSFVENI
partner: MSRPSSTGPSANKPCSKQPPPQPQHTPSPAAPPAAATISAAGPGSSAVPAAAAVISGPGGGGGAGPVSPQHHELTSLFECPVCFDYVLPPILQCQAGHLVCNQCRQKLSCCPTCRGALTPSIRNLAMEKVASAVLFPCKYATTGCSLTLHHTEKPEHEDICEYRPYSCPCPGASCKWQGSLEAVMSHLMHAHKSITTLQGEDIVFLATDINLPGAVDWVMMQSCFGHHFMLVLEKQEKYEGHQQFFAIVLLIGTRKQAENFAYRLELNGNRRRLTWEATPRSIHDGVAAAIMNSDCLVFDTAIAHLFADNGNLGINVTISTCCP

Variants of: B1
Details: with siah2_human SIAH2, O43255

Variant	effect of a mutation on the interaction
V605N;P607N	disrupting interaction
